Measured values: patent US20140322204A1

Legend:
[1] = molecular target: 412-423 branched peptide (UniProt P27958); assay: antibody titration on the branched peptide (FIG. 10)
[2] = molecular target: H77 E1E2 mutant W420A (Hepatitis C virus genotype 1a strain H77) (UniProt P27958); assay: GNA capture EIA of E1E2 from HEK 293T cells
[3] = molecular target: H77 E1E2 mutant L413A (Hepatitis C virus genotype 1a strain H77) (UniProt P27958); assay: GNA capture EIA of E1E2 from HEK 293T cells
[4] = molecular target: H77 E1E2 mutant N415A (Hepatitis C virus genotype 1a strain H77) (UniProt P27958); assay: GNA capture EIA of E1E2 from HEK 293T cells
[5] = molecular target: H77 E1E2 mutant Q412A (Hepatitis C virus genotype 1a strain H77) (UniProt P27958); assay: GNA capture EIA of E1E2 from HEK 293T cells
[6] = molecular target: H77 E1E2 mutant G418A (Hepatitis C virus genotype 1a strain H77) (UniProt P27958); assay: GNA capture EIA of E1E2 from HEK 293T cells
[7] = molecular target: E1E2 of HCV genotype 3a isolate UKN3A13.6 (Hepatitis C virus genotype 3a); assay: cell-based or functional assay
[8] = molecular target: E1E2 of HCV genotype 5 isolate UKN5.15.11 (Hepatitis C virus genotype 5); assay: cell-based or functional assay

Substance: monoclonal antibody AP33
- fold lower concentration required to obtain 50% binding, against MAb 3/11 [1]: > 10 fold
- reduction of binding compared to wild type [2]: > 75%
- reduction of binding compared to wild type [3]: > 75%
- reduction of binding compared to wild type [4]: > 75%
- enhancement of binding compared to wild type [5]: 50%
- reduction of binding compared to wild type [6]: > 75%
- IC50 of HCVpp neutralisation (ug/ml (printed p.g/ml)) [7]: 22
- IC50 of HCVpp neutralisation (ug/ml (printed p.g/ml)) [8]: 0.6
